Experimental data reported in paper PMC11679068, “Affinity Peptide-Based Circularly Permuted Fluorescent Protein Biosensors for Non-Small Cell Lung Cancer Diagnosis” (Sensors (Basel, Switzerland), 2024).
Peptide text beside a SMILES is read from it.

Assays:
CYFRA 21-1 = test: BLI binding affinity of synthesized peptides to immobilized CYFRA 21-1; conditions: Octet RH96, CYFRA 21-1 immobilized on AR2G biosensors by amine coupling, room temperature, association 90 s, dissociation 180 s, KD = kd/ka
Method: The binding affinities of the peptides to their respective markers were assessed using an Octet RH96 instrument (Sartorius AG, Goettingen, Germany) with software version 12.2.1.18. Markers CEA, SCCAg, and CYFRA 21-1 were immobilized on amine reactive second-generation biosensors (AR2G, Sartorius AG) via amine coupling, with ethanolamine used to quench unreacted sites. Peptides were prepared in a range of concentrations. Experiments were conducted at room temperature and involved three phases: baseline (60 s), association (90 s), and dissociation (180 s). Data analysis was performed using Octet Data Analysis software version 11.0 to calculate the equilibrium dissociation constant (KD) as dissociation constant (kd)/association constant (ka).

carcinoembryonic antigen = biological target: T1, carcinoembryonic antigen (UniProt P06731 35-685); test: BLI; Octet RH96; CEA, SCCAg or CYFRA 21-1 immobilised on AR2G biosensors by amine coupling; peptides in a range of concentrations; room temperature; association 90 s, dissociation 180 s; KD as kd/ka; conditions: both partners purified
T1 construct: carcinoembryonic antigen (CEA), serum tumor marker; also called CEA; CAE
T1 sequence (looked up): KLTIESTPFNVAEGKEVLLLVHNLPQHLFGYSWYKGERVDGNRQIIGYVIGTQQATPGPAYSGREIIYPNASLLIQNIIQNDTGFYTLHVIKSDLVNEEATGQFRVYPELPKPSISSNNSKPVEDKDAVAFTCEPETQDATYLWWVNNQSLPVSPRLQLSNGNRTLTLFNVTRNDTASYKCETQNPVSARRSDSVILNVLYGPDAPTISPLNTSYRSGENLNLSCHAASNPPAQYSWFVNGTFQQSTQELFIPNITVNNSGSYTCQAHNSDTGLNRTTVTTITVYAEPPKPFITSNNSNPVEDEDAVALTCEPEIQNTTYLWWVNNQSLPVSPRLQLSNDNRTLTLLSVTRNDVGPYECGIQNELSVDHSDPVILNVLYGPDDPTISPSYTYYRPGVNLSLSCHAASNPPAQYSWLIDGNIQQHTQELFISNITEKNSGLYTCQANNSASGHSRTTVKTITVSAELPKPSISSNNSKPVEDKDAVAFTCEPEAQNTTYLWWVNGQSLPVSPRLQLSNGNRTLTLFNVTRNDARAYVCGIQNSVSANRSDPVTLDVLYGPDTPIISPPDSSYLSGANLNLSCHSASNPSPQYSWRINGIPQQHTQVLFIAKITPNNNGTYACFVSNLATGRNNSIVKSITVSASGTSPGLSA

[1] = biological target: squamous cell carcinoma antigen (UniProt P29508 1-390); test: as above; conditions: both partners purified
Sequence of squamous cell carcinoma antigen (P29508 whole entry, the tested form may be a part): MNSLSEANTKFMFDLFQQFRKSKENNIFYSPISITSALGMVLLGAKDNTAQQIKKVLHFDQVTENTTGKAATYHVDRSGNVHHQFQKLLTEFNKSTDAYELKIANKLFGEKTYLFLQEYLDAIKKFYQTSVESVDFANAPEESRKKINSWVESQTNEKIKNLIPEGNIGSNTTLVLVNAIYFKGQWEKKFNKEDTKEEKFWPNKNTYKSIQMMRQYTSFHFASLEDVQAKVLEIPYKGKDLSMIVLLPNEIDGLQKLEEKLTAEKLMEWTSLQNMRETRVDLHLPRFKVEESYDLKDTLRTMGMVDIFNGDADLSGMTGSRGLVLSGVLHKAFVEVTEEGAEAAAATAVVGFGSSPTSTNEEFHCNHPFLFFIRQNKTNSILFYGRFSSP

cytokeratin fragment 19 = biological target: T2, cytokeratin fragment 19 (Limits are not printed. The conventional CYFRA 21-1 soluble C-terminal fragment of KRT19 (after caspase-3 cleavage at Asp238) is used; from general knowledge, not from the paper or the candidate featu); test: as above; conditions: both partners purified
T2 chain: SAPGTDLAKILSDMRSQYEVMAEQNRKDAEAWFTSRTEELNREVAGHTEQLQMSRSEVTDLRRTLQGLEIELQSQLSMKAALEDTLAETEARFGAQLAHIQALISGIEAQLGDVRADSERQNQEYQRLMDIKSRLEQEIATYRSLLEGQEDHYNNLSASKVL

CSCC[C@H](NC(=O)CN)C(=O)N[C@@H](CS)C(=O)N[C@@H](CO)C(=O)N[C@@H](Cc1ccccc1)C(=O)N[C@H](C(=O)N[C@@H](CC(=O)O)C(=O)N[C@H](C(=O)N[C@@H](C)C(=O)N[C@@H](CC(N)=O)C(=O)N[C@@H](CS)C(=O)N1CCC[C@H]1C(=O)O)C(C)C)C(C)C [Peptide Y3] (H-GMCSFVDVANCP-OH)
Kd (CYFRA 21-1): 14 nM

B1: synthetic peptide C4 (peptide)
peptide: HHRLTRSMQLMM
notes: dodecapeptide C4 from phage display, synthesized; source: synthetic peptide (Fmoc solid phase, Synpeptide Co., HPLC purified)
Kd (carcinoembryonic antigen): 16 nM

B2: synthetic peptide S3 (peptide)
peptide: IQCFSLAPYVGC
notes: dodecapeptide S3 from phage display, synthesized; source: synthetic peptide (Fmoc solid phase, Synpeptide Co., HPLC purified)
Kd [1]: 2900 nM

B3: synthetic peptide C2 (peptide)
peptide: YGVSALSSYVSC
notes: dodecapeptide C2 from phage display, synthesized; source: synthetic peptide (Fmoc solid phase, Synpeptide Co., HPLC purified)
Kd (carcinoembryonic antigen): 870 nM

B4: synthetic peptide C3 (peptide)
peptide: WSPSALLPSSVT
notes: dodecapeptide C3 from phage display, synthesized; source: synthetic peptide (Fmoc solid phase, Synpeptide Co., HPLC purified)
Kd (carcinoembryonic antigen): 460 nM

B5: synthetic peptide Y10 (peptide)
peptide: QSYFNACWSCNH
notes: source: synthetic peptide (Fmoc solid phase, Synpeptide Co., HPLC purified)
Kd (cytokeratin fragment 19): 1000 nM

B6: synthetic peptide S1 (peptide)
peptide: TLSWHQNLRLME
notes: dodecapeptide S1 from phage display, synthesized; source: synthetic peptide (Fmoc solid phase, Synpeptide Co., HPLC purified)
Kd [1]: 28 nM

B7: synthetic peptide Y1 (peptide)
peptide: CFAGTPSILMLA
notes: dodecapeptide Y1 from phage display, synthesized; source: synthetic peptide (Fmoc solid phase, Synpeptide Co., HPLC purified)
Kd (cytokeratin fragment 19): 83 nM

B8: synthetic peptide Y3 (peptide)
peptide: GMCSFVDVANCP
notes: dodecapeptide Y3 from phage display, synthesized; source: synthetic peptide (Fmoc solid phase, Synpeptide Co., HPLC purified)
Kd (cytokeratin fragment 19): 14 nM

B9: synthetic peptide S2 (peptide)
peptide: AYSRDVVLNMWR
notes: dodecapeptide S2 from phage display, synthesized; source: synthetic peptide (Fmoc solid phase, Synpeptide Co., HPLC purified)
Kd [1]: 6.1 nM
